Test results as given in patent US20060024296A1 (AbbVie / Abbott, published 2006).

What was measured:
[1] = target: T1, human CS1-Fc fusion protein (human, UniProt Q9NQ25 23-226, limits assumed); test: SPR BIAcore 2000
T1 construct: analyte of the BIAcore experiment; not shown: Fc part

[2] = target: T2, human CS1 (native, on K562 and Daudi cells) (human, UniProt Q9NQ25 23-335); test: FACS, K562 cells
T2 construct: K562 and Daudi cells 'are known to express native CS1'; also called SLAMF7; CRACC

[3] = target: T2, human CS1 (native, on K562 and Daudi …); test: FACS, Daudi cells
[4] = target: T3, CS1 ECD-myc-GPI fusion protein on NSO cells (human, UniProt Q9NQ25 23-226, glycosyl phosphatidylinositol linkage for cell surface expression); test: cell-based or functional assay
[5] = target: T3, CS1 ECD-myc-GPI fusion protein on NSO …; test: FACS, NSO-CS1 cells
NSO-FcRn = target: T4, NSO-FcRn; test: FACS, NSO-FcRn cells
T4 construct: negative control transfectant; also called FcRn on NSO cells

[6] = target: T5, huCS1 (human CS1 extracellular domain, amino acids 1-227, fused to human gamma 1 Fc) (human, UniProt P01857-1 99-330 = IgG part); test: sandwich ELISA, Fc-captured construct
T5 construct: domain: human Fc tag; secreted protein in 293/T supernatant; also called human CS1-Fc

[7] = target: T6, mu25/hu75 chimeric CS1-Fc (human/mouse chimera; human); test: sandwich ELISA, Fc-captured construct
T6 construct: entry starts with the signal peptide; not shown: human gamma 1 Fc tag of the NIF Fc vector

[8] = target: T7, hu75/mu25 chimeric CS1-Fc (human/mouse chimera; human); test: sandwich ELISA, Fc-captured construct
T7 construct: entry starts with the signal peptide; not shown: human gamma 1 Fc tag of the NIF Fc vector
T7 chain: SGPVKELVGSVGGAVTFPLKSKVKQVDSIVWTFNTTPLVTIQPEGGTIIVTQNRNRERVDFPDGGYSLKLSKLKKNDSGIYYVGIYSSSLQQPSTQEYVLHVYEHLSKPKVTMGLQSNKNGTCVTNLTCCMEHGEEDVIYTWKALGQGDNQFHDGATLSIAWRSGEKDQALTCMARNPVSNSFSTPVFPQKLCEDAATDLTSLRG

[9] = target: T1, human CS1-Fc fusion protein; test: SPR BIAcore 2000, antibody immobilised, CS1-Fc analyte, bivalent analyte model
[10] = target: T8, CS1 ECD-Fcγ3 fusion protein (human, UniProt Q9NQ25 23-226); test: direct binding ELISA, coated human CS1-human Fcγ3
T8 construct: also called CS1-G3; CS1-γ3; not shown: constant region of IgG3 (human Fc-γ3)

B1: Luc90 (antibody, IgG2b, V domains shown)
VH: QVQLQQPGAELVRPGASVKLSCKASGYSFTTYWMNWVKQRPGQGLEWIGMIHPSDSETRLNQKFKDKATLTVDKSSSTAYMQLSSPTSEDSAVYYCARSTMIATRAMDYWGQGTSVTVSS
VL: DIVMTQSQKSMSTSVGDRVSITCKASQDVITGVAWYQQKPGQSPKLLIYSASYRYTGVPDRFTGSGSGTDFTFTISNVQAEDLAVYYCQQHYSTPLTFGAGTKLELK
notes: mouse monoclonal, IgG2b; subclone Luc90.H1 used in BIAcore; also called Luc90-H1, D9; Luc90.H1
[1]
  fold higher binding affinity than Luc34.1: 28 fold
  fold higher binding affinity than Luc 63.2: 5.5 fold
[2]
  FACS (MFI): 9.7 MFI
[3]
  FACS (MFI): 10.1 MFI
[4]
  cytotoxicity of the target cells (ADCC, LDH release, PBMC effectors 20:1): ~50%
[5]
  FACS (MFI): 237 MFI
NSO-FcRn
  FACS (MFI): < 5 MFI
[6]
  binding result: binds
[7]
  binding result: no binding (tested: 2 ug/ml)
[8]
  binding result: binds
[9]
  Kd: 6.29 nM
  koff: 0.000281 s⁻¹
  kon: 45600 M⁻¹ s⁻¹

B2: Luc69 (antibody, V domains shown)
VH: QVQLQQSGPELVKPGASVKISCKASGYAFSNSWMNWVKQRPGQGLEWIGRIYPGDGDTKSNGKFKGKATLTADKSSRAAYMQLSSLTSVDSAVYFCARSTMIMTGAMDYWGQGTSVTVSS
VL: DIVMTQSHKFMSTSVGDRVIITCKASQDVSTAVAWYQQKPGQSPKLLIYSASFRYTGVPDRFTGSGSGTDFTFTVSSVQAEDLAVYYCQQHYSTPPYTFGGGTKLEIK
notes: mouse monoclonal
[6]
  binding result: binds
[7]
  binding result: no binding (tested: 2 ug/ml)
[8]
  binding result: binds

B3: Luc34 (antibody, IgG1, V domains shown)
VH: QVQLQQSGAELARPGASVKLSCKASGYTFTSYWMQWVKQRPGQGLEWIGAIYPGDGDTRYTQKFKGKATLTADKSSSTAYMQLSSLASEDSAVYYCARGKVYYGSNPFAYWGQGTLVTVSA
VL: DIQMTQSSSYLSVSLGGRVTITCKASDHINNWLAWYQQKPGNAPRLLISGATSLETGVPSRFSGSGSGKDYTLSITSLQTEDVATYYCQQYWSTPWTFGGGTKLEIK
notes: subclone Luc34.1 used in BIAcore; also called Luc34-1; Luc34-3
[2]
  FACS (MFI): 26.2 MFI
[3]
  FACS (MFI): 10.3 MFI
[5]
  FACS (MFI): 127 MFI
NSO-FcRn
  FACS (MFI): < 5 MFI
[6]
  binding result: binds
[7]
  binding result: no binding (tested: 2 ug/ml)
[8]
  binding result: binds
[9]
  Kd: 173 nM
  koff: 0.00127 s⁻¹
  kon: 7480 M⁻¹ s⁻¹

B4: HuLuc63 (antibody, human IgG1, V domains shown)
VH: EVQLVESGGGLVQPGGSLRLSCAASGFDFSRYWMSWVRQAPGKGLEWIGEINPDSSTINYAPSLKDKFIISRDNAKNSLYLQMNSLRAEDTAVYYCARPDGNYWYFDVWGQGTLVTVSS
VL: DIQMTQSPSSLSASVGDRVTITCKASQDVGIAVAWYQQKPGKVPKLLIYWASTRHTGVPDRFSGSGSGTDFTLTISSLQPEDVATYYCQQYSSYPYTFGQGTKVEIK
notes: human IgG1/κ, transiently expressed in 293-H cells; also called humanized Luc63; HuLuc63 IgG1/κ antibody
[10]
  EC50: 0.0701 µg/mL

B5: Luc63 (antibody, IgG2a, V domains shown)
VH: EVKLLESGGGLVQPGGSLKLSCAASGFDFSRYWMSWVRQAPGKGLEWIGEINPDSSTINYTPSLKDKFIISRDNAKNTLYLQMSKVRSEDTALYYCARPDGNYWYFDVWGAGTTVTVSS
VL: DIVMTQSHKFMSTSVGDRVSITCKASQDVGIAVAWYQQKPGQSPKLLIYWASTRHTGVPDRFTGSGSGTDFTLTISNVQSEDLADYFCQQYSSYPYTFGGGTKLEIK
notes: mouse monoclonal, IgG2a; also called Lu 63; Luc63-1
[2]
  FACS (MFI): 15.8 MFI
[3]
  FACS (MFI): 12.7 MFI
[5]
  FACS (MFI): 214 MFI
NSO-FcRn
  FACS (MFI): < 5 MFI
[10]
  EC50: 0.0661 µg/mL
[9]
  Kd: 34.6 nM
